Assay results as given in article PMC10397247.

Experiments:
4H3590-AA = molecular target: T1, 4H3590-AA; assay: two-hybrid library CCmax; conditions: mean of both orientations;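 also: natural log of median RNA to DNA barcode read ratio; higher means stronger binding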
T1 chain: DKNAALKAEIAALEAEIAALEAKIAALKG

O13-AA = molecular target: T2, O13-AA; assay: two-hybrid library CCmax; conditions: mean of both orientations;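 also: natural log of median RNA to DNA barcode read ratio; higher means stronger binding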
T2 chain: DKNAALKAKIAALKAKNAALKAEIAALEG

4H4038-AA = molecular target: T3, 4H4038-AA; assay: two-hybrid library CCmax; conditions: mean of both orientations;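 also: natural log of median RNA to DNA barcode read ratio; higher means stronger binding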
T3 chain: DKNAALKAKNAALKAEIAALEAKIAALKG

GCN2_T = assay: two-hybrid library CCmax;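 also: natural log of median RNA to DNA barcode read ratio; higher means stronger binding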
4H2736-AA = molecular target: T4, 4H2736-AA; assay: two-hybrid library CCmax; conditions: mean of both orientations;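 also: natural log of median RNA to DNA barcode read ratio; higher means stronger binding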
T4 chain: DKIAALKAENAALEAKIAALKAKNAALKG

4H2705-AA = molecular target: T5, 4H2705-AA; assay: two-hybrid library CCmax; conditions: mean of both orientations;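 also: natural log of median RNA to DNA barcode read ratio; higher means stronger binding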
T5 chain: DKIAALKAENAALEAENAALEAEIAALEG

4H337-AA = molecular target: T6, 4H337-AA; assay: two-hybrid library CCmax; conditions: mean of both orientations
T6 chain: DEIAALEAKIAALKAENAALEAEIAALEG

4H2622-AA = molecular target: T7, 4H2622-AA; assay: two-hybrid library CCmax; conditions: mean of both orientations
T7 chain: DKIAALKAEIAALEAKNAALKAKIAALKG

4H_GCN4 = assay: two-hybrid library CCmax
Chain of 4H_GCN4 (chain, as listed by the source): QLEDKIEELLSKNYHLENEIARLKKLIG

4H3587-AA = molecular target: T8, 4H3587-AA; assay: two-hybrid library CCmax; conditions: mean of both orientations
T8 chain: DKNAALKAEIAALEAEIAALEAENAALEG

4H451-AA = molecular target: T9, 4H451-AA; assay: two-hybrid library CCmax; conditions: mean of both orientations
T9 chain: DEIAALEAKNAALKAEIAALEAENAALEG

4H3625-AA = molecular target: T10, 4H3625-AA; assay: two-hybrid library CCmax; conditions: mean of both orientations
T10 chain: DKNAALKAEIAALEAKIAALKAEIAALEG

4H3049-AA = molecular target: T11, 4H3049-AA; assay: two-hybrid library CCmax; conditions: mean of both orientations
T11 chain: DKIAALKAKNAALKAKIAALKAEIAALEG

4H3905-AA = molecular target: T12, 4H3905-AA; assay: two-hybrid library CCmax; conditions: mean of both orientations
T12 chain: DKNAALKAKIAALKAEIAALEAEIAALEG

4H384-AA = molecular target: T13, 4H384-AA; assay: two-hybrid library CCmax; conditions: mean of both orientations
T13 chain: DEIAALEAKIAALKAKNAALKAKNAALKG

4H43-AA = molecular target: T14, 4H43-AA; assay: two-hybrid library CCmax; conditions: mean of both orientations
T14 chain: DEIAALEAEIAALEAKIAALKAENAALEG

4H_BCR = molecular target: T15, 4H_BCR; assay: two-hybrid library CCmax; conditions: mean of both orientations
T15 chain: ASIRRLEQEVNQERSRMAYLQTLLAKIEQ

O14-AA = molecular target: T16, O14-AA; assay: two-hybrid library CCmax; conditions: mean of both orientations
T16 chain: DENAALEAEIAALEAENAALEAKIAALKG

4H2888-AA = molecular target: T17, 4H2888-AA; assay: two-hybrid library CCmax; conditions: mean of both orientations
T17 chain: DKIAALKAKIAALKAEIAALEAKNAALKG

4H1392-AA = molecular target: T18, 4H1392-AA; assay: two-hybrid library CCmax
T18 chain: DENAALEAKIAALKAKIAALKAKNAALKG

O11-AA = molecular target: T19, O11-AA; assay: two-hybrid library CCmax; conditions: mean of both orientations
T19 chain: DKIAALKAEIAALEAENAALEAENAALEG

4H510-AA = molecular target: T20, 4H510-AA; assay: two-hybrid library CCmax; conditions: mean of both orientations
T20 chain: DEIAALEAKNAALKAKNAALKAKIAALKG

4H3129-AA = molecular target: T21, 4H3129-AA; assay: two-hybrid library CCmax
T21 chain: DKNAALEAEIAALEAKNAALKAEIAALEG

4H_APH = molecular target: T22, 4H_APH; assay: two-hybrid library CCmax; conditions: mean of both orientations
T22 chain: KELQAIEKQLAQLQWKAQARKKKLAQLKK

4H2839-bH = molecular target: T23, 4H2839-bH; assay: two-hybrid library CCNG1
T23 chain: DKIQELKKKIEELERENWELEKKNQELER

4H2915-bH = molecular target: T24, 4H2915-bH; assay: two-hybrid library CCNG1
T24 chain: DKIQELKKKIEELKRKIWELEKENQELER

4H2438-bH = molecular target: T25, 4H2438-bH; assay: two-hybrid library CCNG1
T25 chain: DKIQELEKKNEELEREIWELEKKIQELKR

4H2503-bH = molecular target: T26, 4H2503-bH; assay: two-hybrid library CCNG1
T26 chain: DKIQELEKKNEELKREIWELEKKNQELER

4H492-bH = molecular target: T27, 4H492-bH; assay: two-hybrid library CCNG1
T27 chain: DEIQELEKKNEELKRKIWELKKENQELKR

4H2588-bH = molecular target: T28, 4H2588-bH; assay: two-hybrid library CCNG1
T28 chain: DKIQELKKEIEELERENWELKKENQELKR

4H319-bH = molecular target: T29, 4H319-bH; assay: two-hybrid library CCNG1
T29 chain: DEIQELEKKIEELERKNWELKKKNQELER

4H477-bH = molecular target: T30, 4H477-bH; assay: two-hybrid library CCNG1
T30 chain: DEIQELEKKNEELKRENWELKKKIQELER

4H348-bH = molecular target: T31, 4H348-bH; assay: two-hybrid library CCNG1
T31 chain: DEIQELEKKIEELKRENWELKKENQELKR

4H40-bH = molecular target: T32, 4H40-bH; assay: two-hybrid library CCNG1
T32 chain: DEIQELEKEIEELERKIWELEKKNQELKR

4H2717-bH = molecular target: T33, 4H2717-bH; assay: two-hybrid library CCNG1
T33 chain: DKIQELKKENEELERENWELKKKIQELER

4H3057-bH = molecular target: T34, 4H3057-bH; assay: two-hybrid library CCNG1
T34 chain: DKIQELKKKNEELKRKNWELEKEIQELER

4H2473-bH = molecular target: T35, 4H2473-bH; assay: two-hybrid library CCNG1
T35 chain: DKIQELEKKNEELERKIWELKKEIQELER

4H2692-bH = molecular target: T36, 4H2692-bH; assay: two-hybrid library CCNG1
T36 chain: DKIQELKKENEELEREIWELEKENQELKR

4H3277-bH = molecular target: T37, 4H3277-bH; assay: two-hybrid library CCNG1
T37 chain: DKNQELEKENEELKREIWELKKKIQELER

4H741-bH = molecular target: T38, 4H741-bH; assay: two-hybrid library CCNG1
T38 chain: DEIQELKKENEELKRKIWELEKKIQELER

4H3070-bA = molecular target: T39, 4H3070-bA; assay: two-hybrid library CCNG1; conditions: mean of both orientations
T39 chain: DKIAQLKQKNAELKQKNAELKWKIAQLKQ

4H3632-bA = molecular target: T40, 4H3632-bA; assay: two-hybrid library CCNG1
T40 chain: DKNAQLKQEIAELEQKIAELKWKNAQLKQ

4H342-bA = molecular target: T41, 4H342-bA; assay: two-hybrid library CCNG1
T41 chain: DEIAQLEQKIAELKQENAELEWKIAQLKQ

4H883-bA = molecular target: T42, 4H883-bA; assay: two-hybrid library CCNG1
T42 chain: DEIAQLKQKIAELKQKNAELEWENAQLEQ

4H496-bA = molecular target: T43, 4H496-bA; assay: two-hybrid library CCNG1
T43 chain: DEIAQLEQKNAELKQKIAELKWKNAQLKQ

In the case of DENAALEAKIAALKAKIAALKAKNAALKG [4H1392-AA], the interaction score (4H3590-AA) is reported as 1.89, the interaction score (O13-AA) is reported as -1.99 and the interaction score (4H4038-AA) is reported as 0.56. The interaction score (GCN2_T) was -1.63, the interaction score (4H2736-AA) was -1.42 and the interaction score (4H2705-AA) was -1.59. The interaction score (4H337-AA) was -0.783, the interaction score (4H2622-AA) was -1.4 and the interaction score (4H_GCN4) was -1.48. It also gave an interaction score (4H3587-AA) of 2.24, an interaction score (4H451-AA) of -0.924 and an interaction score (4H3625-AA) of -0.223. For the same binder, the interaction score (4H3049-AA) was -0.0185, the interaction score (4H3905-AA) was 0.91 and the interaction score (4H384-AA) was -1.28. For the same binder, the interaction score (4H43-AA) was 1.25, the interaction score (4H_BCR) was -2.2 and the interaction score (O14-AA) was 0.474. The interaction score (4H2888-AA) was -0.448, the interaction score (4H1392-AA) was -0.666 and the interaction score (O11-AA) was 1.25. The interaction score (4H510-AA) was -1.62, the interaction score (4H3129-AA) was -1.07 and the interaction score (4H_APH) was -1.59.

Work on DKIQELEKKNEELEREIWELEKKIQELKR [4H2438-bH] yielded an interaction score (4H2839-bH) of 0.0743, an interaction score (4H2915-bH) of 1.73 and an interaction score (4H2438-bH) of -0.05. The interaction score (4H2503-bH) was 0.644, the interaction score (4H492-bH) was -0.644 and the interaction score (4H2588-bH) was -0.0625. The interaction score (4H319-bH) was -1.85, the interaction score (4H477-bH) was 0.358 and the interaction score (4H348-bH) was -0.861. For the same binder, the interaction score (4H40-bH) was -0.00537, the interaction score (4H2717-bH) was 0.187 and the interaction score (4H3057-bH) was 1.41. It also gave an interaction score (4H2473-bH) of 1.01, an interaction score (4H2692-bH) of 0.322 and an interaction score (4H3277-bH) of -0.355. For the same binder, the interaction score (4H741-bH) was -0.318.

DKIAQLKQKNAELKQKNAELKWKIAQLKQ [4H3070-bA] showed an interaction score (4H3070-bA) of -0.355, an interaction score (4H3632-bA) of -1.37 and an interaction score (4H342-bA) of 1.46. It also gave an interaction score (4H883-bA) of 0.052 and an interaction score (4H496-bA) of -1.47.
